In patent publication US20090070890A1 (AFFITECH, published 2009):
Each block holds one binder with its values, some of them ahead of it.

Assays:
Recombinant ALCAM/Fc = target: T1, Recombinant ALCAM/Fc (UniProt Q13740 28-527, limits assumed); test: Biacore T100; ALCAM/Fc (250 RU) amine-coupled to a CM5 chip; Fab at 3.9 to 125 nM; heterogeneous ligand model; Fab, not IgG; ALCAM/Fc on the chip
T1 construct: also called CD166 antigen (Biacore)
T1 sequence (looked up): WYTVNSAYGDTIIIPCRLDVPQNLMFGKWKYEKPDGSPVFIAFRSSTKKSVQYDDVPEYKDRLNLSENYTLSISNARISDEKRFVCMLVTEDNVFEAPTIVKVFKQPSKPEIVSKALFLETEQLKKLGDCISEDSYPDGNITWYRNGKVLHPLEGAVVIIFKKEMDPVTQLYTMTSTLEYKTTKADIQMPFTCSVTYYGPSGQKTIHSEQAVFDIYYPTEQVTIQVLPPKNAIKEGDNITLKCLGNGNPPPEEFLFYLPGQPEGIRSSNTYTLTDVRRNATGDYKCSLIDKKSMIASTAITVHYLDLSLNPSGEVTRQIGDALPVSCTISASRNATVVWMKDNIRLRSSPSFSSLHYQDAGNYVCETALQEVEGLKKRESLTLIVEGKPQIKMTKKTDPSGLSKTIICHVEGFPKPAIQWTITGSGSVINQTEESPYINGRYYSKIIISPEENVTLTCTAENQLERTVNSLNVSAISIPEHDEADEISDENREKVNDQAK
Procedure: Binding affinity of EJ212/007-Cl2-5 Fab fragments to the CD166 antigen was measured by Biacore analysis. Recombinant ALCAM/Fc (250RU) was immobilized by amine coupling to a CM5 chip. A range of concentrations of the Fab antibody, from 3.9 to 125 nM (nanomolar), were run over the chip. The binding affinity, expressed as the Kd, was calculated using the Heterogen ligand binding model in the Biacore T100 Evaluation software.

[1] = target: T2, CD166 (ALCAM, activated leukocyte cell adhesion molecule), native, of human tumor cell lines (human, UniProt Q13740 28-583); test: photo-cross-linking of linker-coupled scFv to PM-1 cells, His-column and streptavidin-bead purification, blot detected with streptavidin-HRP
T2 construct: whole, on cells; The antigen was identified as CD166 by mass spectrometry of protein from PM-1 cells; also called CD166 antigen; MEMD
T2 sequence (looked up): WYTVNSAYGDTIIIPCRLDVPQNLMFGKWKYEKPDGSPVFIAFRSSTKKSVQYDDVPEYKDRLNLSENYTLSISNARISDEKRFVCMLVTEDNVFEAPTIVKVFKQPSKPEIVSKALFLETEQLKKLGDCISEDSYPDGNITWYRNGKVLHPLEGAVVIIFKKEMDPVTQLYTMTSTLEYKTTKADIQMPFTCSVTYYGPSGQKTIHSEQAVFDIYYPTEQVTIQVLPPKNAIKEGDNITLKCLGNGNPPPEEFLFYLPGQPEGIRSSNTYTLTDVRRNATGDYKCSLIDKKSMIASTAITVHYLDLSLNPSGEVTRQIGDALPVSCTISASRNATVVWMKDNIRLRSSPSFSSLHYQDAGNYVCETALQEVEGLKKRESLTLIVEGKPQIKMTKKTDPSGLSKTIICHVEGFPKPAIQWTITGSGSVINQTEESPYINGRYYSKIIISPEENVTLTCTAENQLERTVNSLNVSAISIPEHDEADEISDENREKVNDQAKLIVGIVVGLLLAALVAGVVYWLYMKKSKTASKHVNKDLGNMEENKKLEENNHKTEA
Procedure: PM-1 cells (2×10⁶) were incubated with 25 μg of the above linker coupled scFv. After washing with PBS the cells were exposed to UV light at 302 nm. This was followed by lysis of the cells by NP-40 in the presence of DNAsel. After incubation on ice SDS was added and the samples were loaded on a His-column. The column was washed in the presence of NP-40 and SDS and the protein of interest was eluted with 5 mM DTT in the same detergents. The eluted sample was then mixed with streptavidin beads and the beads were washed in the presence of SDS. The SDS concentrations was increased and the beads were incubated at 90° C. for five minutes. The supernatant was then run on a 7% SDS-PAGE, transferred to a PVDF membrane and detected with streptavidin-HRP.

[2] = target: T3, mouse recombinant CD166-Fc (R&D systems) (mouse, UniProt Q61490 28-527); test: ELISA on coated mouse CD166-Fc
T3 construct: Bought reagent; also called mouse CD166-Fc; not shown: Fc part of the commercial chimera, not described
T3 sequence (looked up): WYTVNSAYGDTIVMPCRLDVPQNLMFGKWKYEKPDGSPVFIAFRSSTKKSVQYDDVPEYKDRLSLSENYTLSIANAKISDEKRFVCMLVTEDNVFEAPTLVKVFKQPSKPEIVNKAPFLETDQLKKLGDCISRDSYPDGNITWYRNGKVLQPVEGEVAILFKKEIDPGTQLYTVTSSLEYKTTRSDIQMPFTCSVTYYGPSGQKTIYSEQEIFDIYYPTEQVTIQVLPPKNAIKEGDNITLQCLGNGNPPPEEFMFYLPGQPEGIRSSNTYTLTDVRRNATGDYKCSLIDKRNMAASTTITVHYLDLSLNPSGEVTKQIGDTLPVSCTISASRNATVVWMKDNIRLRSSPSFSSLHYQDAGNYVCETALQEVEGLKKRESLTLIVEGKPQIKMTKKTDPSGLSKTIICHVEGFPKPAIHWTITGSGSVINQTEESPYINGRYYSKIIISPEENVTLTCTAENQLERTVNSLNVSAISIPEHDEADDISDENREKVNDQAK

[3] = target: T2, CD166 (ALCAM, activated leukocyte cell …); test: western blot, non-reducing SDS-PAGE, probed with EJ212/007-Cl2-5 IgG and anti-human IgG-HRP
Source text: Membrane proteins were isolated from two EJ212/007-Cl2-5 antigen-positive cell lines (PM-1 and DU-145; determined by FACS analysis) and concentrated by ultra-centrifugation. The membranes were resuspended in detergent (CHAPS/DOC) which was then removed from the sample by using Detergent Removing Resin (Pierce) in column format. The purified membrane proteins before and after sample concentration, and the cytosolic fraction were subsequently analysed by SDS-PAGE/Western under non-reducing conditions. The blot was probed with the EJ212/007-Cl2-5 IgG and corresponding secondary anti-human IgG coupled to HRP in order to visualise the proteins by chemiluminescence.

[4] = target: T4, human recombinant CD166-Fc (R&D systems), complete extracellular domain (human, UniProt Q13740 28-527); test: ELISA, plate coated with 10 ug/ml CD166-Fc, detection with anti-kappa-HRP and ABTS, absorbance at 405 nm
T4 construct: extracellular domain; Bought reagent; also called recombinant CD166-Fc antigen; human CD166-Fc; not shown: Fc part of the commercial chimera, not described
T4 sequence (looked up): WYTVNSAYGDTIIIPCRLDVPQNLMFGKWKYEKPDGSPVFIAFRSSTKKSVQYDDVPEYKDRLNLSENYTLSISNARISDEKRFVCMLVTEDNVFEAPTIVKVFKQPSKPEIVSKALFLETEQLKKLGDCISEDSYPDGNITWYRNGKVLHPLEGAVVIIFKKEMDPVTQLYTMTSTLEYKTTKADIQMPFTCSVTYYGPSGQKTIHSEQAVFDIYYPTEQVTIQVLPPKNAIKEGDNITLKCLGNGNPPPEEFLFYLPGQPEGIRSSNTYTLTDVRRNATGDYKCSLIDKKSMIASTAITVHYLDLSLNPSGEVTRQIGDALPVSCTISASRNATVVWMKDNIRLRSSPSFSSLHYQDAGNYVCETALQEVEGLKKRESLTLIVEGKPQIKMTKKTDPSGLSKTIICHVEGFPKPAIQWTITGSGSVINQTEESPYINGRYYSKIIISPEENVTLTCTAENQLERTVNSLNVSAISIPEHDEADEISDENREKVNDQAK
Procedure: Binding of the EJ212/007-Cl2-5 IgG to the CD166 antigen was tested in ELISA. An ELISA plate was coated overnight with 10 μg/ml of a commercially available recombinant CD166-Fc antigen (R&D systems), CD166 d1-5/Fc or CD166 d1-3/Fc. An IgG with irrelevant binding specificity was added to the ELISA as a negative control. After washing with PBS/0.05% Tween the plate was incubated for 1 hour with a dilution series of EJ212/007-Cl2-5 IgG ranging from 10 to 0.16 μg/ml. Detection of the bound IgG was done by incubation for 1 hour with 1 μg/ml anti-kappa-HRP and 15 minutes with the 1-step ABTS substrate (Pierce). The absorbance was measured at 405 nm.

- Kd (Recombinant ALCAM/Fc): 0.029 µM
B1: EJ212/007-Cl2-5 Fab (Fab, V domains shown)
VH: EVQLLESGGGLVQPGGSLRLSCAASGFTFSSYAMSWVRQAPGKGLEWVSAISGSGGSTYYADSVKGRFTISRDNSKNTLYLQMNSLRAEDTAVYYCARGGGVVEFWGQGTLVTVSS
VL: DIRMTQSPSFLSASVGDRVTITCRASQDISSYFAWYQQKPGKAPKLLIYAASTLRSGVPSRFSGSGSGTDFTLTISSLQPEDFATYYCQQSYSTPRITFGQGTRLEIK
notes: Fab format of EJ212/007-Cl2-5; The CH1 and CL of the Fab, and how it was made, are not described; also called EJ212/007-Cl2-5 Fab fragments; Fab antibody

- binding result [1]: binds
B2: scFv EJ212/007-Cl2-5 T68C (scFv, name in Kabat numbering)
scFv: EVQLLESGGGLVQPGGSLRLSCAASGFTFSSYAMSWVRQAPGKGLEWVSAISGSGGSTYYADSVKGRFCISRDNSKNTLYLQMNSLRAEDTAVYYCARGGGVVEFWGQGTLVTVSSKLSGSASAPKLEEGEFSEARVDIRMTQSPSFLSASVGDRVTITCRASQDISSYFAWYQQKPGKAPKLLIYAASTLRSGVPSRFSGSGSGTDFTLTISSLQPEDFATYYCQQSYSTPRITFGQGTRLEIK
modifications: Mts-Atf-LC-Biotin linker (Pierce 33083) coupled to the introduced Cys 68 (Kabat)
notes: Expressed in E. coli TG1; also called EJ212/007-Cl2-5 scFv (His-tagged) with a cysteine introduced by point mutation at position 68 (Kabat, RFCIS); linker coupled scFv

- binding result [2]: binds
- binding result [3]: binds
- binding result [4]: binds
B3: EJ212/007-Cl2-5 IgG (antibody)
heavy: not shown
light: DIRMTQSPSFLSASVGDRVTITCRASQDISSYFAWYQQKPGKAPKLLIYAASTLRSGVPSRFSGSGSGTDFTLTISSLQPEDFATYYCQQSYSTPRITFGQGTRLEIKRTVAAPSVFIFPPSDEQLKSGTASVVCLLNNFYPREAKVQWKVDNALQSGNSQESVTEQDSKDSTYSLSSTLTLSKADYEKHKVYACEVTHQGLSSPVTKSFNRGEC
notes: Human IgG1/kappa; also called IgG form of EJ212/007-Cl2-5; EJ212/007-Cl2-5 IgG antibody
